Results from patent publication US20140308285A1 (Amgen, published 2014).

B1: P69058.3 (bispecific antibody)
chain 1: QVQLQESGPGLVKPSQTLSLTCTVSGGSINNNNYYWTWIRQHPGKGLEWIGYIYYSGSTFYNPSLKSRVTISVDTSKTQFSLKLSSVTAADTAVYYCAREDTMTGLDVWGQGTLVTVSSGGGGSGGGGSSSYELTQPPSVSVSPGQTARITCSGDALPKKYAYWYQQKSGQAPVLVIYEATKRPSGIPERFSGSSSGTMATLTLSGAQVEDEADYYCYSTDSTNYHWVFGGGTKLTVLGASTKGPSVFPLAPCSRSTSESTAALGCLVKDYFPEPVTVSWNSGALTSGVHTFPAVLQSSGLYSLSSVVTVPSSNFGTQTYTCNVDHKPSNTKVDKTVGGGGSAAAVPRDLEVVAATPTSLLISWDAPHHGVAYYRITYGETGGNSPVQEFTVPGSKSTATISGLKPGVDYTINVYAVLAYPRGYPLSKPISINYRTDYKDDDDKGSSHHHHHH
chain 2: EVQLVESGGGLVKPGVSLRLSCAASGFTFSRYGMNWVRQAPGKGLEWVSSISSSGTYIKYADSVKGRFTISRDNAKNSLNLQMNSLRAEDTAVYYCARDRDRYPLDYWGQGTLVTVSSGGGGSGGGGSDIQMTQSPSSLSASVGDRVTITCRASQSINNYLNWYQQKPGKAPTLLIYAASSLQSGVPSRFSGSRSGTDFTLTISSLQPEDFAAYFCQQTYSNPTFGQGTKVEVKRTVAAPSVFIFPPSDEQLKSGTASVVCLLNNFYPREAKVQWKVDNALQSGNSQESVTEQDSKDSTYSLSSTLTLSKADYEKHKVYACEVTHQGLSSPVTKSFNRGEC
B2: P69059.3 (bispecific antibody)
chain 1: SYELTQPPSVSVSPGQTARITCSGDALPKKYAYWYQQKSGQAPVLVIYEATKRPSGIPERFSGSSSGTMATLTLSGAQVEDEADYYCYSTDSTNYHWVFGGGTKLTVLGGGGGSGGGGSQVQLQESGPGLVKPSQTLSLTCTVSGGSINNNNYYWTWIRQHPGKGLEWIGYIYYSGSTFYNPSLKSRVTISVDTSKTQFSLKLSSVTAADTAVYYCAREDTMTGLDVWGQGTTVTVSSASTKGPSVFPLAPCSRSTSESTAALGCLVKDYFPEPVTVSWNSGALTSGVHTFPAVLQSSGLYSLSSVVTVPSSNFGTQTYTCNVDHKPSNTKVDKTVGGGGSAAAVPRDLEVVAATPTSLLISWDAPHHGVAYYRITYGETGGNSPVQEFTVPGSKSTATISGLKPGVDYTINVYAVLAYPRGYPLSKPISINYRTDYKDDDDKGSSHHHHHH
chain 2: DIQMTQSPSSLSASVGDRVTITCRASQSINNYLNWYQQKPGKAPTLLIYAASSLQSGVPSRFSGSRSGTDFTLTISSLQPEDFAAYFCQQTYSNPTFGQGTKVEVKGGGGSGGGGSEVQLVESGGGLVKPGVSLRLSCAASGFTFSRYSMNWVRQAPGKGLEWVSSISSSGTYIKYADSVKGRFTISRDNAKNSLNLQMNSLRAEDTAVYYCARDRDRYPLDYWGQGTLVTVSSRTVAAPSVFIFPPSDEQLKSGTASVVCLLNNFYPREAKVQWKVDNALQSGNSQESVTEQDSKDSTYSLSSTLTLSKADYEKHKVYACEVTHQGLSSPVTKSFNRGEC
B3: H71362.2 (bispecific antibody)
chain 1: EVQLVESGGGLVKPGVSLRLSCAASGFTFSRYGMNWVRQAPGKGLEWVSSISSSGTYIKYADSVKGRFTISRDNAKNSLNLQMNSLRAEDTAVYYCARDRDRYPLDYWGQGTLVTVSSASTKGPQVQLQESGPGLVKPSETLSLTCTVSGGSIISHYWSWIRQPPGKGLEWIGYIYYSGSTNYNPSLKSRVTISVDTSKNQFSLKLTSVTAADTAVYYCARDGWSAFDYWGQGTLVTVSSASTKGPSVFPLAPCSRSTSESTAALGCLVKDYFPEPVTVSWNSGALTSGVHTFPAVLQSSGLYSLSSVVTVPSSNFGTQTYTCNVDHKPSNTKVDKTVGGGGSAAAVPRDLEVVAATPTSLLISWDAIGLYPYYYRITYGETGGNSPVQEFTVPGSKSTATISGLKPGVDYTITVYAVSGIFGWNNSKPISINYRTGSSDYKDDDDKGSSHHHHHH
chain 2: SYELTQPPSVSVSPGQTARITCSGDALPKKYAYWYQQKSGQAPVLVIYEATKRPSGIPERFSGSSSGTMATLTLSGAQVEDEADYYCYSTDSTNYHWVFGGGTKLTVLGTVAAPDIQMTQSPSSLSASVGDRVTITCRASQGIRNALGWYQQKPGKAPKRLIYAASSLQSGVPSRFSGSGSGTEFTLTISSLQPEDFATYYCLQHNSYPRTFGQGTKVEIRRTVAAPSVFIFPPSDEQLKSGTASVVCLLNNFYPREAKVQWKVDNALQSGNSQESVTEQDSKDSTYSLSSTLTLSKADYEKHKVYACEVTHQGLSSPVTKSFNRGEC

Target: T1, human CD3 (CD3 epsilon chain) on human T cells (human, UniProt P07766 22-207)
T1 construct: The assay used isolated human T cells, which carry CD3 as part of the TCR-CD3 complex; also called CD3ε
Assay: FACS on isolated human T cells, FITC anti-human light chain secondary antibody
Method: The heterodimeric bispecific antibodies described in Example 1 were produced in HEK 293 cells and were assayed by fluorescence activated cell sorting (FACS) for binding to T cells, which express CD3, and to a human ovarian cancer cell line, Ovcar-8, which expresses mesothelin. Briefly, the heterodimeric bispecific antibodies were incubated with about 50,000 Ovcar-8 cells or isolated human or cynomolgus monkey T cells at 4° C. for one hour. The cells were then washed and stained with a fluorescein isothiocyanate (FITC)-conjugated anti-human light chain secondary antibody and analyzed by flow cytometry. The relative binding was represented by the geometric mean of fluorescence intensity.

T1 sequence (P07766 22-207 limits assumed): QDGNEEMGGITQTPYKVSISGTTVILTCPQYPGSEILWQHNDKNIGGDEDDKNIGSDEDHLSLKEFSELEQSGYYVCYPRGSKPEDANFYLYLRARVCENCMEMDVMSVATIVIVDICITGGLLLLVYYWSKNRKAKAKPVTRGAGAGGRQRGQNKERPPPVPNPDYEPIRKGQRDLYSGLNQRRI

Point of comparison: B3, “FACS binding (geometric mean)” value 354. Against it:
- B1 — lower, 290
- B2 — lower, 179
